Paper doi:10.1101/2022.08.28.505448 (bioRxiv, 2022)

T1: MITF_(81-204) (UniProt O75030-9 81-204)
T1 sequence (looked up): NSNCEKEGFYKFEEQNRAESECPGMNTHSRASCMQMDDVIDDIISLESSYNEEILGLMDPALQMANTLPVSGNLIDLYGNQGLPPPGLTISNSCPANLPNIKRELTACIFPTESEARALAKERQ

T2: GB1-TAZ2 (human, UniProt Q09472 1723-1812, C1738A | C1746A | C1789A | C1790A)
T2 sequence (looked up): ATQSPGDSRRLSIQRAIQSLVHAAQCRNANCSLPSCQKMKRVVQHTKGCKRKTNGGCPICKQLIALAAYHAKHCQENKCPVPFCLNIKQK

T3: GB1-MITF_(81-204) Δ123-127 (UniProt O75030-9 81-204, Δ123-127)
T3 sequence (looked up): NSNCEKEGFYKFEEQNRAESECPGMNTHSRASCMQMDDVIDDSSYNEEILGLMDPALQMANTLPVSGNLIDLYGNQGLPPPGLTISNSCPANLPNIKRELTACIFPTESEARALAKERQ

B1: TAZ1 (residues 346-440 of CBP) (domain or fragment)
chain: not shown
B2: TAZ2 (residues 1723-1812 of p300 with four stabilizing mutations) (domain or fragment, human, UniProt Q09472 1723-1812, looked up)
chain: T2 sequence (looked up)
B3: MITF_(117-135) peptide, Asp122 mutated to alanine (peptide, UniProt O75030-9 117-135, looked up)
peptide: DDVIDAIISLESSYNEEIL
B4: MITF_(117-135) peptide, Ile120 mutated to alanine (peptide, UniProt O75030-9 117-135, looked up)
peptide: DDVADDIISLESSYNEEIL
B5: MITF_(117-135) peptide, Glu127 mutated to alanine (peptide, UniProt O75030-9 117-135, looked up)
peptide: DDVIDDIISLASSYNEEIL
B6: MITF_(117-135) peptide, Ser125 mutated to alanine (peptide, UniProt O75030-9 117-135, looked up)
peptide: DDVIDDIIALESSYNEEIL
B7: MITF_(117-135) peptide, Asp118 mutated to alanine (peptide, UniProt O75030-9 117-135, looked up)
peptide: DAVIDDIISLESSYNEEIL
B8: MITF_(117-135) peptide, Asp121 mutated to alanine (peptide, UniProt O75030-9 117-135, looked up)
peptide: DDVIADIISLESSYNEEIL
B9: MITF_(117-135) peptide, Ile123 mutated to alanine (peptide, UniProt O75030-9 117-135, looked up)
peptide: DDVIDDAISLESSYNEEIL
B10: MITF_(117-135) peptide, Ile124 mutated to alanine (peptide, UniProt O75030-9 117-135, looked up)
peptide: DDVIDDIASLESSYNEEIL
B11: MITF_(117-135) peptide, Leu126 mutated to alanine (peptide, UniProt O75030-9 117-135, looked up)
peptide: DDVIDDIISAESSYNEEIL
B12: MITF_(117-135) peptide, Val119 mutated to alanine (peptide, UniProt O75030-9 117-135, looked up)
peptide: DDAIDDIISLESSYNEEIL
B13: MITF_(117-135) peptide, Asp117 mutated to alanine (peptide, UniProt O75030-9 117-135, looked up)
peptide: ADVIDDIISLESSYNEEIL

target: T1, MITF_(81-204); experiment: ITC

Kd, 1.24 ± 0.23 µM:
B2

Kd, 6.7 ± 0.5 µM:
B1

target: T2, GB1-TAZ2; experiment: peptide or protein array

Binding result, binds:
B3, B4, B5, B6, B7, B8, B9, B10, B11, B12, B13

target: T3, GB1-MITF_(81-204) Δ123-127; experiment: pull-down

Binding result, binds:
B2
